T1: human GIP receptor (human) (UniProt P48546)
T1 sequence (looked up): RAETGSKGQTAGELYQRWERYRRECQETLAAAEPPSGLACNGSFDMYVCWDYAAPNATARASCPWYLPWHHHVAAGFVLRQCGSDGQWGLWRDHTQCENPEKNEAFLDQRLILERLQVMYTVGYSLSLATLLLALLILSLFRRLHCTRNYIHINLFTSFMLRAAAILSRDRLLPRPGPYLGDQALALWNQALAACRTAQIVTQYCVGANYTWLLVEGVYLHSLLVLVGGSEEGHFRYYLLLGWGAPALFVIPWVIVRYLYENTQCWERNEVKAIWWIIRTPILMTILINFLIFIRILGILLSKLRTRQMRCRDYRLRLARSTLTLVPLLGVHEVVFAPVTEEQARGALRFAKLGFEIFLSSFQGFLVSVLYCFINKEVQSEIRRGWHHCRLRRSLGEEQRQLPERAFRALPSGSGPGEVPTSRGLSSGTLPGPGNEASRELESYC


What was measured:
[1] = molecular target: T1, human GIP receptor (human); assay: cell-based or functional assay
[2] = molecular target: human GLP-1 receptor (human) (UniProt P43220); assay: cell-based or functional assay
[3] = molecular target: T1, human GIP receptor (human); assay: radioligand competition ([125I]GIP displaced), membranes of cells over-expressing human GIPR; Ki by Cheng-Prusoff
[4] = molecular target: human GLP-1 receptor (human) (UniProt P43220); assay: radioligand competition ([125I]GLP-1 displaced), membranes of cells over-expressing human GLP-1R; Ki by Cheng-Prusoff

Sequence of human GLP-1 receptor (human) (P43220 24-463): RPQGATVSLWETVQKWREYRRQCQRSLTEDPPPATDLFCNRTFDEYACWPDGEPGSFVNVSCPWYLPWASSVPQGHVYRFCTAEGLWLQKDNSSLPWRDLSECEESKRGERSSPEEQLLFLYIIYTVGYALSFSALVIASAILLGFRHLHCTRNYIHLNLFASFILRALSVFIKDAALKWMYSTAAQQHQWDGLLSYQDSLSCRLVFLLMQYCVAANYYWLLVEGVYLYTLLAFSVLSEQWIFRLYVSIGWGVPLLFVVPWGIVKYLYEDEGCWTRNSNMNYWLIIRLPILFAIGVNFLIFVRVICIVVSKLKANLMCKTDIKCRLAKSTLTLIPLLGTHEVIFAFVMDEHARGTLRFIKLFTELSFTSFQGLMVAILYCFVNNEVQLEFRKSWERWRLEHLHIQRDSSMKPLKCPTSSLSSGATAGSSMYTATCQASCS

Binder	EC50 value (ratio: EC50 of endogenous ligand / EC50 of test compound), LANCE Ultra cAMP assay, HEK293/GIPR cells [1]	EC50 value (ratio: EC50 of endogenous ligand / EC50 of test compound), cAMP reporter gene (luciferase) assay, HEK293/CRE/GLP-1R cells [2]	Ki ratio (Ki of endogenous ligand / Ki of test compound) [3]	Ki ratio (Ki of endogenous ligand / Ki of test compound) [4]
YXEGTXTSDYXIXLDKQAQAEFVKWLLKGGPSSGAPPPSK (X1 is Aib; X2 is αMePhe; X3 is Aib; X4 is Aib; C-terminal primary amide) [P001]	7.13	52.1	8.82	19.5
YXEGTXTSDYXIXLDKQAQAEFVKWLLKGGPSSGAPPPSK (Aib at 2; αMePhe at 6; Aib at 11; Aib at 13; K at position 24 ε-amino conjugated with ([2-(2-amino-ethoxy)-ethoxy]-acetyl)2-(γ-Glu)1-CO-(CH2)16-CO2H; C-terminal primary amide) [P007]	–	5.84	–	0.47

— patent EP4813403A1, “USE OF GLP-1R/GIPR DOUBLE-TARGET AGONIST IN PREPARING ANIMAL DRUG” (Hangzhou Zhongmeihuadong Pharmaceutical Co., Ltd., priority 2023, dated 2025)
